Experimental data from PMC9603416.

Target: T1, RR07-6xHis (Streptococcus pneumoniae R6) (UniProt Q8DRF5)
T1 sequence: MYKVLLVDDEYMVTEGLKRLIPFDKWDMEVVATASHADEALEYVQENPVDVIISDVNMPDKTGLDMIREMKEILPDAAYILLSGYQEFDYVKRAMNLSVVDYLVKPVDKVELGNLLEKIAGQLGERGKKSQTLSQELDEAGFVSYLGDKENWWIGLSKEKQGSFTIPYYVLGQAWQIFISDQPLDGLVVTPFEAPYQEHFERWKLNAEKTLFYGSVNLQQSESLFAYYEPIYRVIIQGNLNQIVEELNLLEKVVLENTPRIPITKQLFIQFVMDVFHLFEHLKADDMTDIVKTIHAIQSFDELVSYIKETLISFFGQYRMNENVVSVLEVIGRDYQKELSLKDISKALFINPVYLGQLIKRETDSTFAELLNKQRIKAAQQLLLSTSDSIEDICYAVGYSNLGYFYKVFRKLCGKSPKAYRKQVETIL
Assay: EMSA
Settings: EMSA: 1 nM dsDNA probe, increasing RR07, binding buffer 20 mM Tris-Cl (rest of the buffer, pH and temperature not in the material)

Sequence | binding
CACTGGTCTGGGGCACAAAGTAATTCATCCCAAAAGGCACGCCTGTGTATGGCAGGGTATTTCCCCGAGAGAAGGCATGCTTGCTAGCAGTACCAAAGCGGGTATCGATGGTTTCAAGTAGTGGTTTCATAGTCTTTCCTTTAGCTGTTTTTCTACATTATATCAGAAAAAGAGGGCCTTTAGAAAAGGAGTTTTAAAGATAACTATTTTGTAGAAAAATGACTATCATTTGTGTATGTATTTTCTGTCTCAAAAGCTATATACTGAACATGAAACTTGTTTGAAAGAGGGAATTGCACG (double strand) [Pgh125] | no binding
TGCAAAACCTCCTGATTGCATTGTTATATTGATAGCGATTATATAAATCAACGCCTTTATTTTATTTCTTATATTAACGAGAGTCAAGAGGAGATGACAAAAAACTATAATAAGTATAAAAAAATATAAAATTTAAACTTAAGATTTCAGATTGGTCGAAAAAATACATATATATATCTAGTATAATTTTTGGTTCTATTTCTATAAAATATTCCACAAATTATAGAATCTTCCAAAAATAGGTAAGCGCTACCTTTTTGGTGTGGTATAATAAGC (double strand) [PstrH] | no binding
